Experimental data published in paper PMC5627591.
Like-named read-outs stand apart in the source and are kept apart here.

Key:
Test in all cases: BLI
[1] = biological target: human IgG1 Fc-YEY variant (M252Y/N286E/N434Y) of the pH-dependent mAbs (human)
[2] = biological target: human IgG1 Fc-YPY variant (M252Y/V308P/N434Y) of the pH-dependent mAbs (human)
[3] = biological target: human IgG1 Fc-YTE variant (M252Y/S254T/T256E) of the pH-dependent mAbs (human)
[4] = biological target: human IgG1 Fc-YEY variant (M252Y/N286E/N434Y) of the pH-dependent mAbs (human); remark: listed apart in the source
[5] = biological target: human IgG1 Fc-YPY variant (M252Y/V308P/N434Y) of the pH-dependent mAbs (human); remark: listed apart in the source
[6] = biological target: human IgG1 wild-type (WT) Fc variant of the pH-dependent mAbs (human)
[7] = biological target: human IgG1 Fc-YTE variant (M252Y/S254T/T256E) of the pH-dependent mAbs (human); remark: listed apart in the source
[8] = biological target: human IgG1 wild-type (WT) Fc variant of the pH-dependent mAbs (human); remark: listed apart in the source

Row | Substance | Kd [1] | Kd [2] | Kd [3] | Kd [4] | Kd [5] | Kd [6] | Kd [7] | Kd [8]
1 | cyno FcRn (cynomolgus monkey neonatal Fc receptor) (from UniProt Q8SPV9 24-365) | 66 nM | 28 nM | 1110 nM | 4.3 nM | 2.2 nM | 853 nM | 76 nM | 
2 | human FcRn (human neonatal Fc receptor) (from UniProt P55899 24-365) | 22 nM | 14 nM | 760 nM | 3.1 nM | 1.6 nM | 185 nM | 30 nM | > 10000 nM
